Results from patent US7723070B2, “Overexpression of aminoacyl-tRNA synthetases for efficient production of engineered proteins containing amino acid analogues” (California Institute of Technology, priority 2000, dated 2010).

How the values were obtained:
[1] = substrate: CSCC[C@H](N)C(=O)O; assay: purified protein, by the assay type; settings: 25.0 °C
[2] = substrate: C#CCCC(N)C(=O)O; assay: ATP-PPi exchange assay: activation of methionine and methionine analogues by MetRS; assay type: biochemical, E. coli; settings: other: ATP-PPi exchange, purified truncated MetRS; 25.0 °C
Protocol: (§1) Activation of methionine analogues by MetRS was assayed via the amino-acid-dependent ATP-PPi exchange reaction, also as previously described (Mellot, P.; Mechulam, Y.; LeCorre, D.; Blanquet, S.; Fayat, G. J. Mol. Biol. 1989, 208, 429; Blanquet, S.; Fayat, G.; Waller, J.-P. Eur. J. Biochem. 1974, 44, 343; Ghosh, G.; Pelka, H.; Schulman, L. H. Biochemistry 1990, 29, 2220). The assay, which measures the ^32P-radiolabeled ATP formed by the enzyme-catalyzed exchange of ^32P-pyrophosphate (PPi) into ATP, was conducted in 150 μl of reaction buffer (pH 7.6, 20 mM imidazole; 0.1 mM EDTA, 10 mM β-mercaptoethanol, 7 mM MgCl2, 2 mM ATP, 0.1 mg/ml BSA, and 2 mM PPi (in the form of sodium pyrophosphate with a specific activity of approximately 0.18 TBq/mole)). […] Kinetic parameters for analogue 5 were obtained with an enzyme concentration of 75 nM and analogue concentrations of 100 μM to 10 mM. Parameters for methionine were obtained by using concentrations ranging from 10 μM to 1 mM. […] Aliquots of 20 μl were removed from the reaction mixture at various time points and were quenched in 0.5 ml of a solution comprising 200 mM PPi, 7% w/v HClO4, and 3% w/v activated charcoal. The charcoal was rinsed twice with 0.5 mL of a 10 mM PPi, 0.5% HClO4 solution and was then resuspended in 0.5 mL of this solution and counted via liquid scintillation methods. Kinetic constants were calculated by nonlinear regression analysis.
(§2) Activation of methionine analogues by MetRS was assayed at 25° C. via the amino acid-dependent ATP-PPi exchange reaction, also as described in Example I (G. Ghosh, H. Pelka, L. H. Schulman, Biochemistry 1990, 29, 2220-2225). […] Kinetic parameters for analogue 5 were obtained with an enzyme concentration of 50 nM and analogue concentrations of 100 μM to 10 mM. […] Kinetic parameters for analogues 4, 7, 8, and 12 were obtained with an enzyme concentration of 50 or 75 nM and analogue concentrations ranging from 5 to 70 mM. Parameters for methionine were obtained by using concentrations ranging from 10 μM to 1 mM. […] Kinetic constants were calculated by nonlinear regression analysis.

[3] = substrate: C/C=C/CC(N)C(=O)O; assay: as above; assay type: biochemical, E. coli; settings: 25.0 °C
Protocol: as §1, §2

[4] = substrate: C=CCCC(N)C(=O)O; assay: as above; assay type: biochemical, E. coli; settings: other: ATP-PPi exchange, purified truncated MetRS; 25.0 °C
Protocol: as §1, §2

[5] = substrate: CCCC[C@H](N)C(=O)O; assay: as above; assay type: biochemical, E. coli; settings: other: ATP-PPi exchange, purified truncated MetRS; 25.0 °C
Protocol: as §1, §2

[6] = other: ATP-PPi exchange, purified truncated MetRS
[7] = other: Example I text, 75 nM enzyme

B1: methionyl tRNA synthetase (MetRS) (Escherichia coli K-12) (protein)
chain: MTQVAKKILVTCALPYANGSIHLGHMLEHIQADVWVRYQRMRGHEVNFICADDAHGTPIMLKAQQLGITPEQMIGEMSQEHQTDFAGFNISYDNYHSTHSEENRQLSELIYSRLKENGFIKNRTISQLYDPEKGMFLPDRFVKGTCPKCKSPDQYGDNCEVCGATYSPTELIEPKSVVSGATPVMRDSEHFFFDLPSFSEMLQAWTRSGALQEQVANKMQEWFESGLQQWDISRDAPYFGFEIPNAPGKYFYVWLDAPIGYMGSFKNLCDKRGDSVSFDEYWKKDSTAELYHFIGKDIVYFHSLFWPAMLEGSNFRKPSNLFVHGYVTVNGAKMSKSRGTFIKASTWLNHFDADSLRYYYTAKLSSRIDDIDLNLEDFVQRVNADIVNKVVNLASRNAGFINKRFDGVLASELADPQLYKTFTDAAEVIGEAWESREFGKAVREIMALADLANRYVDEQAPWVVAKQEGRDADLQAICSMGINLFRVLMTYLKPVLPKLTERAEAFLNTELTWDGIQQPLLGHKVNPFKALYNRIDMRQVEALVEASK
notes: The fully active, truncated form of methionyl tRNA synthetase (MetRS) was purified from overnight cultures of JM101 cells carrying the plasmid pGG3; made in house; host or cells: E. coli JM101 carrying plasmid pGG3
- Km [1, 6]: 0.0243 ± 0.002 mM
- kcat [1, 6]: 13.3 s⁻¹
- kcat/Km [1, 6]: 547000 M⁻¹ s⁻¹
- kcat/Km [1, 7]: 0.54 s^−1μM^−1
- Km [2]: 2.415 ± 0.17 mM
- kcat [2]: 2.6 ± 0.3 s⁻¹
- kcat/Km [2]: 1080 M⁻¹ s⁻¹
- Km [3, 6]: 15,675 ± 250 μM
- kcat [3, 6]: 1.82 ± 0.6 s⁻¹
- kcat/Km [3, 6]: 116 M⁻¹ s⁻¹
- kcat/Km [3, 7]: 1.1×10^−4 s^−1μM^−1
- Km [4]: 4.555 ± 0.2 mM
- kcat [4]: 1.35 ± 0.1 s⁻¹
- kcat/Km [4]: 296 M⁻¹ s⁻¹
- Km [5]: 4.12 ± 0.9 mM
- kcat [5]: 2.15 ± 0.6 s⁻¹
- kcat/Km [5]: 522 M⁻¹ s⁻¹
